Positions count from the first letter of the chain named. Names and notes keep the numbering of the source. Values belong to the binder of their own block, whether it stands above or below them.
Target: plasminogen activator inhibitor, type 1 (PAI-1) (UniProt P05121 24-402)
Assay: enzyme preincubated with PAI-1 under pseudo-first order conditions at 23 degrees Celsius; residual activity read in indirect chromogenic assay
Method: Second order rate constants for the inhibition of wild type human t-PA and variant t-PA were measured under pseudo-first order conditions as previously described. Briefly, enzyme and inhibitor were preincubated at 23 degrees Celsius for periods of time varying from 0–30 minutes. Following preincubation, the mixtures were diluted, and the residual enzymatic activity was measured in a standard indirect chromogenic assay. For each enzyme, the concentrations of enzyme and inhibitor and the times of preincubation were chosen to yield several data points for which the residual enzymatic activity varied between 20% and 80% of the initial activity. Data were analyzed by plotting the natural logarithm of the ratio (residual activity/initial activity) versus time of preincubation and measuring the resulting slopes. Division of this slope by –[I] yielded the second order rate constants shown.

Sequence of plasminogen activator inhibitor, type 1 (PAI-1) (P05121 24-402 limits assumed): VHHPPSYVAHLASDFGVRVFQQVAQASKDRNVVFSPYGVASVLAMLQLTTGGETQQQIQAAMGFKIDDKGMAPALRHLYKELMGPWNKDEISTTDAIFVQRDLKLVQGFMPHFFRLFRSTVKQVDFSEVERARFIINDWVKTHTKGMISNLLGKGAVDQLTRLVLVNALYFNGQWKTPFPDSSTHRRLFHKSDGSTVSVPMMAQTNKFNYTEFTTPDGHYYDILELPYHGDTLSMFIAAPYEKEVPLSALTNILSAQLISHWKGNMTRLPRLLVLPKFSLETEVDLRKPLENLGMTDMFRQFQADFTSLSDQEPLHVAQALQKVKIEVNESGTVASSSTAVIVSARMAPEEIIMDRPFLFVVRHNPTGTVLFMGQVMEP

- Second Order Rate Constant for inhibition by PAI-1: 1.8e+06 M⁻¹ s⁻¹
B1: t-PA/R275E, single-chain form (enzyme)
chain: SYQVICRDEKTQMIYQQHQSWLRPVLRSNRVEYCWCNSGRAQCHSVPVKSCSEPRCFNGGTCQQALYFSDFVCQCPEGFAGKCCEIDTRATCYEDQGISYRGTWSTAESGAECTNWNSSALAQKPYSGRRPDAIRLGLGNHNYCRNPDRDSKPWCYVFKAGKYSSEFCSTPACSEGNSDCYFGNGSAYRGTHSLTESGASCLPWNSMILIGKVYTAQNPSAQALGLGKHNYCRNPDGDAKPWCHVLKNRRLTWEYCDVPSCSTCGLRQYSQPQFEIKGGLFADIASHPWQAAIFAKHRRSPGERFLCGGILISSCWILSAAHCFQERFPPHHLTVILGRTYRVVPGEEEQKFEVEKYIVHKEFDDDTYDNDIALLQLKSDSSRCAQESSVVRTVCLPPADLQLPDWTECELSGYGKHEALSPFYSERLKEAHVRLYPSSRCTSQHLLNRTVTDNMLCAGDTRSGGPQANLHDACQGDSGGPLVCLNDGRMTLVGIISWGLGCGQKDVPGVYTKVTNYLDWIRDNMRP
notes: Noncleavable single-chain enzyme, secreted from COS-1 cells only as a single chain

- Second Order Rate Constant for inhibition by PAI-1: 210000 M⁻¹ s⁻¹
B2: t-PA/R275E,H417E, single-chain form (enzyme)
chain: B1 chain with H417E

- Second Order Rate Constant for inhibition by PAI-1: 150000 M⁻¹ s⁻¹
B3: t-PA/R275E,H417D, single-chain form (enzyme)
chain: B1 chain with H417D
